From the nanobody polyreactivity screen of Harvey et al. (2022) come the findings set out here.

The data set can be described thus: yeast display, Sf9 membrane polyspecificity reagent, FACS + sequencing; frameworks hold sequencing errors. An outline of the steps:
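After 36–48 hours of galactose induction, yeast (Saccharomyces cerevisiae BJ5465) displaying a synthetic nanobody library were stained at 4 °C for 1 hour with 10% biotinylated, detergent-solubilized Sf9 membrane reagent. Streptavidin microbeads enriched the stained cells before FACS sorting into low and high (top ~1%) gates on anti-HA and streptavidin fluorescence. Each clone's polyreactivity label reflects its gate of origin.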
As to “QVQLVESGGGLVQAGGSLRLSCAASGRTFEQNAMGWYRQAPGKEREFVAAITASSGRTSYADSVKGRFTISRDNAKNTVYLQMNSLKPEDTAVYDCAADLADRERRHNYWGQGTQVTVSS”, the “polyreactivity (PSR sort gate)” value is reported as “low polyreactivity”.
Turning to “QVQLVESGGGLVQAGGSLRLSCAASGRTFEQNAMGWYRQAPGKERELVASITSVGSTDYADSVKGRFTISRDNAKNTVYLQMNSLKPEDTAVYYCAKTLCSQNYDFDYWGQGTQVTVSS”, the “polyreactivity (PSR sort gate)” value is on record as “low polyreactivity”.
Take “QVQLVESGGGLVQAGGSLRLSCAASGRTFERYAMGWYRQAPGKERELVAAISWSGSSTYYADSVKARFTISRDISKNTVYLHMNSLKPEDTAVYYCNALFQQRYGYWGQGTQVTVSS”: the “polyreactivity (PSR sort gate)” value was “low polyreactivity”.
In the case of “QVQLVESGGGLVQAGGSLRLSCAASGRTFERYAMGWYRQAPGKERELVADISSSGSTNYADSVKGRFTISRDNAKNTVYLQMNRLNPEDTAVYYCAADYWRHWYWDVVEFDYWGQGTQVTVSS”, the “polyreactivity (PSR sort gate)” value is recorded as “high polyreactivity”.
The value for “QVQLVESGGGLVQAGGSLRLSCAASGRTFETNAMGWYRQAPGKERELVAAISRSGGSTRYADSVKGRFTISRDNAKNTVYLQMNRLKPEDTAVYYCAVRVGLGGGYWGQGTQVTVSS” was “high polyreactivity”.
“QVQLVESGGGLVQAGGSLRLSCAASGRTFETYAMGWYRQAPGKERELVATIRSSGSTNYADSVKGRFTISRDNAKNTVYLQMNSLKPEDTAVYYCAAVYVYRTSYLISLYDYGYWGQGTQVTVSS”: the “polyreactivity (PSR sort gate)” value is “high polyreactivity”.
“QVQLVESGGGLVQAGGSLRLSCAASGRTFEWYAMGWYRPAPGKERELVAVISSGGSTNYADSVKGRFTISRDNAKNTVYLQMNSLIPEDTAVYYCAVLQARDGYWLYLYDYWGQGTQVTVSS”: the “polyreactivity (PSR sort gate)” value is given as “low polyreactivity”.
In the case of “QVQLVESGGGLVQAGGSLRLSCAASGRTFEYNAMGWYRQAPGKERELVAAISSSGGSTRYADSVKGRFTISRDNAKNTVYLQMNSLKPEDTAVYYCAKRGYTSSRRWIYDYRGQGTQVTVSS”, the “polyreactivity (PSR sort gate)” value is given as “high polyreactivity”.
The value for “QVQLVESGGGLVQAGGSLRLSCAASGRTFFGYAMGWYRQAPGKERELVAAISSRGDSTYYADSVKGRFTISRDNAKNTVYLQMNSLKPEDTAVYYCNTYSTVYSYDYDYWGQGTQVTVSS” was “low polyreactivity”; that for “QVQLVESGGGLVQAGGSLRLSCAASGRTFFGYAMGWYRQAPGKERELVAAITSSGGRTYYADSVKGRFTISRDNAKNTVYLQMNSLKPEDTAVYYCNTVLSFRSVNIYRGRGDYWGQGSQVTVSS” was “high polyreactivity”; that for “QVQLVESGGGLVQAGGSLRLSCAASGRTFFIYAMGWYRQAPGKERELVARITGGGRTYYADSVKGRFTISRDNAKNTVYLQMNSLKPEDTAVYYCAKRSYVTYPPYDYWGQGSQVTVSS” was “high polyreactivity”.
In the case of “QVQLVESGGGLVQAGGSLRLSCAASGRTFFKNALGWYRQAPGKERELVASISSRSGTTYYADSVKGRFTISRDNAKNTVYLQMNSLKPEDTAVYYCAASRNRYSYGYWGQGTQVTVSS”, the “polyreactivity (PSR sort gate)” value is reported as “high polyreactivity”.
Consider “QVQLVESGGGLVQAGGSLRLSCAASGRTFFKYDMGWYRQAPAKERELVAAITWTGGSTYYADSVKGRFTISRDYAKNTVYLQMNSLKPEDTAVYYCAAADYYYVEYDYWGQGTQVTVSS”, for which the “polyreactivity (PSR sort gate)” value is listed as “low polyreactivity”.
For the sequence “QVQLVESGGGLVQAGGSLRLSCAASGRTFFKYVMGWYRQAPGKERELVAAISYRSGSTYYADSVKGRFTISRDNAKNTVYLQMNSLKPEDTAVYYCAKEPPPVKGDYWGQGTQVTVSS”, the “polyreactivity (PSR sort gate)” value is recorded as “low polyreactivity”.
Take “QVQLVESGGGLVQAGGSLRLSCAASGRTFFLYAMGWYRQAPGKEREFVATISYGGGSTYYADSVKGRFTISRDNAKNTVYLQMNSLKPEDTAVYYCNALNTSQYAEGTSDYDGNMGYWGQGTQVTVSS”: the “polyreactivity (PSR sort gate)” value is “low polyreactivity”.
On to “QVQLVESGGGLVQAGGSLRLSCAASGRTFFPYAMGWYRQAPGKERELVAAITRGGSTNYADSVKGRFTISRDNAKNTVYLQINSLKPEDTAVSYCATVVRYSNARGDYWGQGTQVTVSS”, for which the “polyreactivity (PSR sort gate)” value is listed as “low polyreactivity”.
